From US20090042785A1

Legend:
[1] = target: human CTLA-4-Fc (Chimerigen) (human) (UniProt P16410); test: competition FACS: HuCTLA4-Ig 5 ug/ml (as printed on the axis) pre-incubated with the antagonist, then staining of P815 cells transfected with human B7.2; blocked ligand B7.2
[2] = target: human CTLA-4-Fc (Chimerigen) (human) (UniProt P16410); test: FACS competition: inhibition of 2.5 nM hCTLA-4 Fc binding to Raji cells (B7.1, B7.2)
[3] = target: human CTLA-4 on the cell surface (transfected CHO and A431 cells; CD152-expressing cells of human tonsil) (human) (UniProt P16410); test: indirect immunoperoxidase staining of cryosections; CD152-expressing cells in human tonsil (positive control tissue), source HT343; 5 µg/mL; scale ± to 4+ (4+ = intense)
[4] = target: human CTLA-4-Fc (Chimerigen) (human) (UniProt P16410); test: competition FACS: 2.5 nM human CTLA-4 Fc pre-incubated with the antagonist, then staining of Raji cells; % inhibition of CTLA-4 Fc binding; blocked ligands B7.1 and B7.2
[5] = target: human CTLA-4 on the cell surface (transfected CHO and A431 cells; CD152-expressing cells of human tonsil) (human) (UniProt P16410); test: indirect immunoperoxidase staining of cryosections; kidney HT268, mononuclear cells, interstitial, inflammatory (membrane, rare); 5 µg/mL [Fig.20 continued, no label on the sheet]
[6] = target: human CTLA-4 on the cell surface (transfected CHO and A431 cells; CD152-expressing cells of human tonsil) (human) (UniProt P16410); test: indirect immunoperoxidase staining of cryosections; spleen HT337, mononuclear cells, white pulp (membrane, frequent); 5 µg/mL [Fig.20 continued, no label on the sheet]
[7] = target: human CTLA-4 on the cell surface (transfected CHO and A431 cells; CD152-expressing cells of human tonsil) (human) (UniProt P16410); test: indirect immunoperoxidase staining of cryosections; tonsil HT664, mononuclear cells, follicular>>interfollicular (membrane); 5 µg/mL [Fig.20 continued, no label on the sheet]
[8] = target: human CTLA-4 on the cell surface (transfected CHO and A431 cells; CD152-expressing cells of human tonsil) (human) (UniProt P16410); test: indirect immunoperoxidase staining of cryosections; CD152-expressing cells in human tonsil (positive control tissue), source HT662; 5 µg/mL; scale ± to 4+ (4+ = intense)
[9] = target: mouse CTLA-4 Fc (Chimerigen) (mouse) (UniProt P09793); test: FACS competition: inhibition of 2.5 nM mCTLA-4 Fc binding to Raji cells (B7.1, B7.2)

| IC50 (read off the curve) [1] [nM] | IC50 [2] [nM] | staining intensity grade [3] | IC50 (read off the curve) [4] [nM] | staining intensity grade [5] | staining intensity grade [6] | staining intensity grade [7] | staining intensity grade [8] | IC50 [9] [nM] | Substance |
| --- | --- | --- | --- | --- | --- | --- | --- | --- | --- |
| 50 | 1.9 |  |  |  |  |  |  |  | anti-human CTLA-4 monoclonal antibody 14D3 (eBioscience) |
|  | 2.1 | 4 + | 2 | 4 + | 4 + | 4 + | 4 + |  | anti-human CTLA-4 monoclonal antibody BNI3 (Becton Dickinson) |
|  |  |  |  |  |  |  |  | 4.1 | anti-mouse CTLA-4 monoclonal antibody 4F10 (hybridoma UC10-4F10-11, ATCC #HB-304) |
